In US5827498A, “Tumor affinity peptide, and radioactive diagnostic agent and radioactive therapeutic agent containing the peptide” (Nihon Medi-Physics Co., Ltd., priority 1994, dated 1998):
Where two headings read alike, the source gives them in different places. No end group written: not given here.

Assays:
[1] = biological target: T1, epitope VTSAPDTRPAPGST of mucin core protein conjugated to bovine serum albumin (BSA) (Homo sapiens, UniProt P15941); assay type: binding
T1 construct: made in house; host or cells: chemical peptide synthesis (no expression host)
Protocol: The epitope VTSAPDTRPAPGST of mucin core protein, to which the conventional peptide YCAREPPTRTNAYWG is known to bind, was synthesized and further conjugated to bovine serum albumin (BSA). The conjugated peptide was used as an artificial antigen to measure antigen affinity of peptide-14 by radioimmunoassay (RIA). The assay will be described below in detail.
Each 200 μl of 10 μg/ml solution of the artificial antigen in 50 mmol sodium carbonate buffer of a pH of 9.5 was added to each of 2 ml tubes containing polystyrene beads of 6.35 mm in diameter. The tubes were stood still overnight at 4° C. Then, the inside of the tubes was washed three times by a washing agent of 0.05%(v/v) Tween 20 PBS (phosphate buffer saline, pH 7.5). In order to block the portions to which the artificial antigen is not bound of the surface of the polystyrene beads, 200 μl of 1% BSA-PBS was each added to each of the tubes. The tubes were stood still for 3 hours at room temperature. Then, the inside of the tubes was washed three times.
Peptide-14 was diluted to 500, 100, 50, 10, 5, 1, 0.5, 0.1 and 0.05 μg/ml with PBS containing 1% PRIONEX™ (an albumin substitute of Pentapharm, Ltd.). […] Each of the diluted peptide-containing solutions was added to each of the […] tubes, followed by adding thereto 100 μl of the previously-prepared antibody solution. The tubes were stood still for 3 hours. Then, the inside of the tubes was washed three times with the washing agent.
A sheep antimouse antibody labelled with iodine-125 (3.7 MBq/ml, made by Amersham Co.) was diluted 100-fold with 1% BSA-PBS. To each of the tubes, 200 μl of the diluted antimouse antibody was added. Then, the tubes were stood still for 2 hours at 37° C. Then, the inside of the tubes was washed three times with the washing agent, and radioactivity was measured by use of an auto well gammma ray counter.

[2] = design: species or system SD rats (Sprague-Dawley Rats); conditions: rat, in vivo
Protocol: To SD rats (Sprague-Dawley Rats) weighing 140 to 200 grams and previously Ravonal anesthetized, technetium-99m-peptide-1 obtained in Example 6, technetium-99m-peptide-2, 3 and 4 obtained in Example 7, technetium-99m-peptide-5, 6, 7, 8, 9, 10, 11, 12, 13 and KYCAREPPTRTNAYWGQG (hereinafter referred to as "peptide-14") prepared according to the method of Example 6 were each administered to the tail vein in an amount of 35 MBq to 45 MBq. The animals were sacrificed 5, 30, 60 and 180 minutes later to determine distribution ratio of radioactivity in various organs using a single channel counter.

[3] = Time course of technetium-99m labeling yield in vitro (HPLC); assay type: physicochemical
Protocol: To 40.3 μmol/300 μl of glucoheptanate was added 130 nmol/50 μl of stannous chloride and 1049 MBq of sodium pertechnetate, and the entire volume was adjusted to 1.3 ml. After stirring, the mixture was left to stand still for 30 minutes at room temperature and then the labeling purity of glucoheptanate was confirmed to be 95% or more by cellulose acetate membrane electrophoresis. 242 MBq/300 μl of the mixture was added to 0.46 μmol/300 μl of peptide-1 obtained in Example 1 and the reaction was completed in a hot water bath at 100° C. in 20 minutes to yield the target technetium-99m-peptide-1. After cooling at room temperature, the peptide was confirmed to have a labeling purity of 98.3% according to HPLC method.
After technetium-99m-peptide-1 obtained in Example 6 and technetium-99m-peptides-2 to 4 obtained by the same method as in Example 6 were left to stand still for 1, 3 and 6 hours, the time course changes of technetium-99m labeling yield of the peptides were studied using liquid chromatography (HPLC method) under the following conditions:
Column: Millipore puresil 5 μm C18 (4.6×150 mm),
Eluent A: 0.1% TFA/purified water,
Eluent B: 0.1% TFA/acetonitrile,
Concentration gradient: 0 min. (10% B)→5 mins. (10% B)→35 mins. (50% B)→45 mins. (75% B).

[4] = In vitro stability of technetium-99m labeled peptide in human plasma (HPLC); assay type: in vitro ADME
Protocol: Technetium-99m-peptide-8 obtained in Example 8 was mixed with 10-fold equivalent of human plasma (ROCKLAND Inc.: STERILE PLASMA containing EDTA) and the mixture was incubated at 37° C. A mixture of technetium-99m-peptide-1 obtained in Example 6 was also prepared by the same method.
The mixture was filtered through a 0.2 μm membrane filter 5 minutes and 30 minutes after the mixing, and was subjected to HPLC analysis. In vitro stability was evaluated by comparing the pattern of HPLC with that of peptide-1 before the mixing procedure. The HPLC profiles of technetium-99m-peptide-1 and of each of the above technetium-99m-labeled peptides mixed with plasma at 4° C. at the 5 and 30 minute points and at 37° C. at the 5 and 30 minute points are shown in FIGS. 7, 8, 9, 10, 11, 12, 13, 14 and 15.

KYCAREPPTRTNAYWGQG [peptide-14, KYCAREPPTRTNAYWGQG]
binding percentage ([1]; 5.0e-8 g/ml): 29.517% | binding percentage ([1]; 1.0e-7 g/ml): 27.890% | binding percentage ([1]; 5.0e-7 g/ml): 42.941% | binding percentage ([1]; 1.0e-6 g/ml): 38.129% | binding percentage ([1]; 5.0e-6 g/ml): 50.293% | binding percentage ([1]; 1.0e-5 g/ml): 60.056% | binding percentage ([1]; 5.0e-5 g/ml): 60.869% | binding percentage ([1]; 1.0e-4 g/ml): 58.585% | binding percentage ([1]; 5.0e-4 g/ml): 63.669%

KYCAD-REPPTD-RTFAYD-WGQG [peptide-10]
radioactivity in liver and small intestines compared with peptides having corresponding L-Arg [2]: reduced percentages of radioactivity in liver and small intestines

YCAREPPTRTFAYWG [peptide-3, peptide without N-terminal Lys, used for comparison]
technetium-99m labeling yield ([3]; 1 hr. standing after labeling): 96.3% | technetium-99m labeling yield ([3]; 3 hr. standing after labeling): below 95% | technetium-99m labeling yield ([3]; 3 hr. standing after labeling, listed as Peptide-3): 88.9% | technetium-99m labeling yield ([3]; 6 hr. standing after labeling): 84.4%

YCAREPPTRTNAYWG [peptide-2, conventional peptide without N-terminal Lys, used for comparison]
technetium-99m labeling yield ([3]; 1 hr. standing after labeling): 85.5% | technetium-99m labeling yield ([3]; 3 hr. standing after labeling): below 95% | technetium-99m labeling yield ([3]; 3 hr. standing after labeling, listed as Peptide-2): 71.8% | technetium-99m labeling yield ([3]; 6 hr. standing after labeling): 78.5%

KYCAD-REPPTRTFAYWGQG [peptide-7]
radioactivity in liver and small intestines compared with peptides having corresponding L-Arg [2]: reduced percentages of radioactivity in liver and small intestines

YCAREPPTRTFAYWGQG [peptide-4]
technetium-99m labeling yield ([3]; 1 hr. standing after labeling): 81.5% | technetium-99m labeling yield ([3]; 3 hr. standing after labeling): below 95% | technetium-99m labeling yield ([3]; 3 hr. standing after labeling, listed as Peptide-4): 81.2% | technetium-99m labeling yield ([3]; 6 hr. standing after labeling): 79.9%

KYCAREPPTRTFAYWGQG [peptide-1]
technetium-99m labeling yield ([3]; 1 hr. standing after labeling): ≥ 98% | technetium-99m labeling yield ([3]; 1 hr. standing after labeling, listed as Peptide-1): 98.3% | technetium-99m labeling yield ([3]; 3 hr. standing after labeling): 97.2% | technetium-99m labeling yield ([3]; 6 hr. standing after labeling): ≥ 96% | technetium-99m labeling yield ([3]; 6 hr. standing after labeling, listed as Peptide-1): 96.6% | % of unidentified radioactive substance in plasma ([4]; 5 mins. later/4° C.): 5.3% | % of unidentified radioactive substance in plasma ([4]; 5 mins. later/37° C.): 12.4% | % of unidentified radioactive substance in plasma ([4]; 30 mins. later/4° C.): 40.1% | % of unidentified radioactive substance in plasma ([4]; 30 mins. later/37° C.): 59.4%

KYCAD-REPPTD-RTFAYWGQG [peptide-9]
radioactivity in liver and small intestines compared with peptides having corresponding L-Arg [2]: reduced percentages of radioactivity in liver and small intestines
